Reference: PMC8878492
“And” between values parts separate entries of the source, which are not always exact repeats. Identical values can stand only once.

Columns and labels:
[1] = target: HAdV-D26 penton base (human adenovirus D26 (HAdV-D26)); test: cryo-EM structure
[2] = target: HAdV-D26 hexon (human adenovirus D26 (HAdV-D26)); test: cryo-EM structure

Substance	stoichiometry N [1] [subunits]	stoichiometry N (copies of pVIn in a hexon) [2]
HAdV-D26 penton base (natural protein)	5	–
cleaved N-terminal fragment of HAdV-D26 pre-protein VI (pVIn) (peptide)	–	2 and 3
